Results published in US20140155331A1 (COUNCIL OF SCIENTIFIC AND INDUSTRIAL RESEARCH, published 2014).
Values belong to the binder of their own block, whether it stands above or below them. Where no end group is shown, it is not given here. [ ]: non-standard residue; d: D form. fluorescein = N-terminal 5(6)-carboxyfluorescein label; Aib = CC(C)(N)C(=O)O; Ahx = NCCCCCC(=O)O

Assays:
S100B [1] = target: T1, S100B; assay: fluorescence anisotropy; 5 nM fluorescein labeled peptide titrated with S100B in 50 mM Tris-HCl pH 7.5, 50 mM NaCl, 10 mM CaCl2, 25 C
T1 chain: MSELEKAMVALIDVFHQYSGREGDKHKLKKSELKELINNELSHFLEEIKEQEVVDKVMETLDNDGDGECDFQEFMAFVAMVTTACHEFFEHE

S100B [2] = target: T1, S100B; assay: fluorescence anisotropy, N-terminal fluorescein labeled peptide

Kd (S100B [1]): 0.0077 µM
B1: pBBD-TRTK (branched dimeric Aib substituted TRTK) (peptide)
peptide: TRTKIDW[Aib]KIL[Aib]KAH[Ahx]
chain: Lys-NH2
modifications: also: branched dimer: two identical arms on one branching Lys (chain 2)
notes: This is a branched peptide with two identical arms on one lysine; also called bivalent helically branched peptide

Kd (S100B [2]): ~0.3 µM
B2: pBM-TRTK (Aib substituted TRTK monomer peptide) (peptide)
peptide: fluorescein-TRTKIDW[Aib]KIL[Aib]GGGCG-NH2
notes: The peptide is derived from TRTK-12 (CapZ residues 265-276) with Aib at N8 and S12; also called pBM-TRK
